Assay results from publication PMC11726873.

Target: PALB2 construct (UniProt Q86YC2)
Assay: ITC; BRCA1 (control 0.6 mM, 17 injections; modified 0.255 mM, 32 injections) titrated into PALB2 at 0.06 mM in the cell; 25 °C; 50 mM NaCl, 25 mM sodium phosphate, pH 6.5; single binding site model

UniProt Q86YC2, sequence (Q86YC2 whole entry): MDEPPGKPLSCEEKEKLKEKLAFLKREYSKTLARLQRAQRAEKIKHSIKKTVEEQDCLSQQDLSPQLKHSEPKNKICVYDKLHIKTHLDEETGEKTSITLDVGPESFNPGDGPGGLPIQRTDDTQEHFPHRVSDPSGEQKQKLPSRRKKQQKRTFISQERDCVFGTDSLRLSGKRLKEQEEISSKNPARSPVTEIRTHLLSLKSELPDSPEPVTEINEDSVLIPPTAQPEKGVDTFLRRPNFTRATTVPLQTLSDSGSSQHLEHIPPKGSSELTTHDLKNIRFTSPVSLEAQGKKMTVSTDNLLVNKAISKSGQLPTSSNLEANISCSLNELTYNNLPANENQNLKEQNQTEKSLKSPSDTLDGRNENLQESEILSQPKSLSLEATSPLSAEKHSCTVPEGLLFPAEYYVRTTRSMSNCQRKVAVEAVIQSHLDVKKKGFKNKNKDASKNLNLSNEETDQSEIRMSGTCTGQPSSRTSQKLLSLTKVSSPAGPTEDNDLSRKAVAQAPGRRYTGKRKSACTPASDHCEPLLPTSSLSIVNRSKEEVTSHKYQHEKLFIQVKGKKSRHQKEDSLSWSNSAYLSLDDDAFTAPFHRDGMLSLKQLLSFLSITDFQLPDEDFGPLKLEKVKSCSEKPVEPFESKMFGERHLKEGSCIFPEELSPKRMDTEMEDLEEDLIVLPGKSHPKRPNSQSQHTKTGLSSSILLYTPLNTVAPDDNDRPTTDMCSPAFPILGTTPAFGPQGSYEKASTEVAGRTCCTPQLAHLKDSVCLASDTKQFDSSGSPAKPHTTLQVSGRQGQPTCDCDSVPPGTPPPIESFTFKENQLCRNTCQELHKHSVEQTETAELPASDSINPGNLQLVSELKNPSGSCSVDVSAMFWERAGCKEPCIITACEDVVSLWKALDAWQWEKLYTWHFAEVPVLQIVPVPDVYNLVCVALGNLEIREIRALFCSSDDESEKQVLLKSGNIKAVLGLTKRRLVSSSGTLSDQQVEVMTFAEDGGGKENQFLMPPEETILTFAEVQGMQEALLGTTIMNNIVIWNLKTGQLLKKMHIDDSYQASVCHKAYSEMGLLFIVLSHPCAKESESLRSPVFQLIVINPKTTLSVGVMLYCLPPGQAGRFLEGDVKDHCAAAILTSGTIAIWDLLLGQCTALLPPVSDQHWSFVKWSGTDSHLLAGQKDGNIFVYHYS

Kd	Binder
3 µM	BRCA1 disordered PALB2-binding domain, residues 1377-1426, modified with dichlorotriazine 1 (indole-labeled) (domain or fragment, a single 272 Da indole incorporation from dichlorotriazine 1; site not determined by MS/MS, the single lysine (residue 1406 in BRCA1) is the intended site) GPGSSVSEDCSGLSSQSDILTTQQRDTMQHNLIKLQQEMAELEAVLEQHGSQPS
4.1 µM	BRCA1 disordered PALB2-binding domain, residues 1377-1426, control (unmodified) preparation (domain or fragment) GPGSSVSEDCSGLSSQSDILTTQQRDTMQHNLIKLQQEMAELEAVLEQHGSQPS
